Laboratory results published in the supplement of paper PMC12455559.

experiment: purified protein yield per well (BCA); higher = higher soluble expression
Summary of the method: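 Values under 25 ug (0.1 mg/mL) are below the detection threshold. Purified protein yield per well was quantified with the Pierce Rapid Gold BCA kit after candidate enzymes, expressed in E. coli C41(DE3), were captured on Ni-charged magnetic beads and released by SUMO protease on an OT-2 robot. Cultures were 2 mL autoinduction with 100 µg/mL kanamycin, run 2 h at 37 °C and then 40 h at 18 °C.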

Sequence	purified protein yield per well [µg]
VEIGPAPTSTSLNSDGSFAVSSASVSSSACGSGCAGGTVYYPNTAGSYGVIAVCPGFTNTSSAISWFARRMATHGFVTIAMNTNSRYDFPASRATQLRAVLNYLVNSSSSTIRSRIRSADRGVSGYSMGGGGTLLASRDDSTLKTGVPMAPYNSGTISGVNVPQMIIGGSNDSIAPVSSMARPFYNNIPSTVKKALAVLNGASHLTFTSYDERAARYGVAFAKRFADGDTRYTPFLCGAEHTAYATSSRFTEYSSNCPY [ESM020]	< 25
MGVRYPEQGGFGGVAAVPGYNSAEKAVAWLGPRLASQGFVVITIATKGRSDQPTARGKQLLAALDYLTAKSPAAVRQRLDPQRLAVTGHSMGGGGSLYAAWTRPGLKAAVPLAPWHSIKNWSGITVPTLVQGGTSDDVAPVGTHAEPIYRSLTGARERAYAESAGADHGTFVREDPLIGALTVAWLKRFVDDDARYEQFLCPAPADPGLTEYRHSCPSS [TEP121]	< 25
FTPSPDPTPDPEPTPEPCQGDCDFTRGPDPSISYLEADNGPYTVRTIDVPSSAGSFNGGTIHYPSGTSGTMGAIAVASGFLAPEGDIIWWGPRLASHGFVVITISTPTFDGEDRRATQLSEALDYVIAQSNSNGSDISGMVDGSRLGAMGWSMGGGGTLQLASGTRLSAAIPLAPWNSGSNNFDQIETPTLIIACENDGTAAVGTHASPFYHSIPASTDKAFLEINGGGHSCANGGGTNGGLLGKYGVSWMKLFMDDDSRYSQFLCGPNHAANSAISEYRDTCNY [DP049]	< 25
GQSCDSLLLQSITNPGPFPVNNIDENSGIRNGPNYNGSTIYYPANNVNTLYSSIIMVPGFMNTELTIQNWGPFFASHGIITMTIGANGLTDTHIQRRDALLDAIVSLKNENQRVASPLFGKIDTFSIAVGGVSKGGGGAQLVPAIDLSIKAIVSLYPWLDNPTSSDLNHSVPVIIISGQLDALAPPSLHADIHYNLTPNTTNKLKYEVAFGTHDVISGPNGGNGEVGIRVISWLQNFLLSDSCYCPITILDASTSSSYITNVVCSNTTVGISQLEPYFLKKVLKIIDVLGREAEGNKNEPLFYIYNDGTVEKKIIIE [TEP017]	< 25
MRSDCSPPWRWWPGAALAPAANAAAPAHPVRLAANPYERGPAPTEASITAEKGPFAIERIDVPAGSGPGFNKGTIYAPTDLSQGTFGAIAVSPGFVSPQAWIDWYGPRLATQGFVVMTLETNSLFDVPAARGEQLLAALDYMTGGSRVKDRIDASRLAVMGHSMGGGGTLEAADDRPALQAAVPLAPWNTNYDWKNVRVPTMIMGADNDAIAPADSMAESYYDNLTSVPEKAYLELKNAGHMTFNSPNTTIAKYTIAWMKRFVDDDARYERFLCPEPAPGATIAQYEGTCPTG [TEP141]	< 25
AAPATAPSVQRAAANPHERGPAPTEESITAEEGPFEFETIDVPAGSGDGFNQGTIYAPTDLSQGTFGAIAVSPGFVSPEALISWYGPRLASQGFVVMTIETNTLLDQPAARGDQLLAALDYLTGGDSPVRDRVDTGRLAVTGHSMGGGGTLEAARERPGLRAAVPLAPWNLNSDWSAVRTPTMILGAQNDFIAANGLHSEPFYEGLTSAPEKAYAEIANTGHMSFNTPNDVIAKYTIAWMKRYVDDDTRYERFLCPAPSDDPALVEYRDTCPGG [TEP002]	< 25
DEIGQAPTAANITGDGSFSTSSSAIFGQSGFGGGTAYYPNTAGKYPVVAFAPGFLSDWNALNWLGPRVASWGFVVVGVNTNTPFDFPDARGDQLLAALNWAVNSAPAAVRDKADGSRRGVSGWSMGGGGTLEALAKDTTGTVKAGVPLAPWHTNKTWSKVTEPVFIIGGQNDSVAAPASHAIPFYNSLGGPKSYLERAGADHFFPTKSNGTVSRAVVSFFKRHVSADTRFTPFLCGFSGLDVSNFRSNSC [ESM030]	< 25
YYSGATLYYPIDAPEPFASIVIVPGWGMPESTIQDWGPFFASWGIVAMTIGTNNPNYDWPEERAEALLDAIETIKQEDGRINSPVYGKIDLNSFAVSGWSMGGGGAQLAAVMEPTLKAVIALCPWLDNWVLGPDDLNHSVPILIFSGENDVNAPPYLHADIHYNYTPAATDKLLFEVENGDHYVANGPDGGSGYIGDRAHEWLKKYLLDDFSNCELLLEVPPTASQYLTNIECESVIQGDLNGDGVIDILDIIILVNMILNDEYNSIADLNEDGELNILDVVTIVNLVLFGDDSVCIDIDGNIYETVQIGDQLWMAENLKVTHYNDGSEITHIINSDDWGNYNEGQYGVYDNDPSNADIYGNLYNWYTVDDDRGVCPEGFHAPSDEEFMELEIFLGMSESEANSTGNRGTNEGSKLADNADLWISGNLENNAEFGMSGFNGLPAGHRLYDNGYYSSMGNFVSYWSSTEHSSNYAWNRELEYHASVVYRFYATKQFGFSIRCLGD [TEP063]	< 25
